Laboratory results: patent publication US20150079112A1 (SAMSUNG ELECTRONICS, published 2015)

Legend:
[1] = target: T1, recombinant hAng2 (C-His, R&D Systems) (human, UniProt O15123 19-496); assay: SPR, BIAcore T100; hAng2 (C-His) captured on anti-His antibody on a CM5 chip, antibody flowed from 100 nM in twofold dilutions
T1 construct: also called human Ang2 protein
T1 sequence: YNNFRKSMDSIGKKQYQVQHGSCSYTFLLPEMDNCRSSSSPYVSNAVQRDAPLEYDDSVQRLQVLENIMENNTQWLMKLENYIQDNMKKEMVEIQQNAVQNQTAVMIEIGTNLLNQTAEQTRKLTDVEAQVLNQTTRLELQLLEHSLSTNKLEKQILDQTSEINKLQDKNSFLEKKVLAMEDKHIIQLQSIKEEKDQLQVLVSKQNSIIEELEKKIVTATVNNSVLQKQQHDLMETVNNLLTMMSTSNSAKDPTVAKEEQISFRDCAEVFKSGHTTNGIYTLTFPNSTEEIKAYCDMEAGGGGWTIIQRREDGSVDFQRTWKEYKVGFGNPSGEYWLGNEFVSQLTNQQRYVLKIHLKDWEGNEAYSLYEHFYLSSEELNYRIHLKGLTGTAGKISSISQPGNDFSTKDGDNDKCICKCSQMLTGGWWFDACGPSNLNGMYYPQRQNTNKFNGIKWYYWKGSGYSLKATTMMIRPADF
Method: The binding affinity of the above antibody to human Ang2 protein was measured by an SPR method using a BIAcore T100 (GE Healthcare). The SPR method uses refractive index change of light which passes a sensor chip according to the state of materials coated onto the sensor chip, and if an antigen or an antibody is flowed onto a chip coated with the antigen or antibody, it causes changes in refractive index due to their binding and Kd values are thus calculated from the measured values.
First, anti-His antibody was immobilized on a CM5 sensor chip (GE healthcare) up to 8,000 RU levels using a pH 5.0 acetate solution and an amine coupling kit (GE Healthcare). 6 μg/ml of a recombinant hAng2 (C-His, R&D Systems) protein was flowed onto the chip to be captured at 100 to 200 RU levels.

[2] = target: T2, mutant Ang2 protein, F469 substituted with alanine, FLAG-tagged at its N-terminal (human, UniProt O15123 19-496, limits assumed); assay: ELISA, coated antibody 1000 nM, 250 ng FLAG-tagged mutant Ang2, anti-FLAG-HRP, OD450
T2 sequence: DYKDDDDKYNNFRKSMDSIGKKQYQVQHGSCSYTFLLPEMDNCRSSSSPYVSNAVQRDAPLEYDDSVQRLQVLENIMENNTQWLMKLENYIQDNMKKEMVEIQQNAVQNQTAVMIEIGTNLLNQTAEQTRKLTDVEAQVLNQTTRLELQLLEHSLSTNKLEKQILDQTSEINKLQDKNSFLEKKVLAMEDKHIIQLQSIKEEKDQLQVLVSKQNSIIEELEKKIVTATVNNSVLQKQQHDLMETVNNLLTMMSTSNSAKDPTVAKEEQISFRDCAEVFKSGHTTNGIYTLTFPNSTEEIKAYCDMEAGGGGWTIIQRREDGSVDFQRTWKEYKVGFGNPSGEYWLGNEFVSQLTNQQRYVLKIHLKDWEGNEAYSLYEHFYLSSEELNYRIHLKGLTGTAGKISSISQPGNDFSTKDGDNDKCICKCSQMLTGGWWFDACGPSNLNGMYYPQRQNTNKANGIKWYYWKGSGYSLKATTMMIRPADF
Outline: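 Antibody coated at 1000 nM and BSA-blocked; 250 ng N-terminally FLAG-tagged alanine-mutant Ang2 bound 2 h at room temperature, detected with HRP-anti-FLAG (1 h) and TMB, OD450. Binding expressed as % of that to native Ang2.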

BSA = target: T3, BSA (bovine, UniProt P02769); assay: ELISA: coated BSA, 10D6 2 µg/ml with or without FLAG-Ang2, detected with anti-mouse IgG-HRP (OD450)
T3 construct: also called Bovine serum albumin; BSA (Sigma)
T3 sequence (P02769 25-607 limits assumed): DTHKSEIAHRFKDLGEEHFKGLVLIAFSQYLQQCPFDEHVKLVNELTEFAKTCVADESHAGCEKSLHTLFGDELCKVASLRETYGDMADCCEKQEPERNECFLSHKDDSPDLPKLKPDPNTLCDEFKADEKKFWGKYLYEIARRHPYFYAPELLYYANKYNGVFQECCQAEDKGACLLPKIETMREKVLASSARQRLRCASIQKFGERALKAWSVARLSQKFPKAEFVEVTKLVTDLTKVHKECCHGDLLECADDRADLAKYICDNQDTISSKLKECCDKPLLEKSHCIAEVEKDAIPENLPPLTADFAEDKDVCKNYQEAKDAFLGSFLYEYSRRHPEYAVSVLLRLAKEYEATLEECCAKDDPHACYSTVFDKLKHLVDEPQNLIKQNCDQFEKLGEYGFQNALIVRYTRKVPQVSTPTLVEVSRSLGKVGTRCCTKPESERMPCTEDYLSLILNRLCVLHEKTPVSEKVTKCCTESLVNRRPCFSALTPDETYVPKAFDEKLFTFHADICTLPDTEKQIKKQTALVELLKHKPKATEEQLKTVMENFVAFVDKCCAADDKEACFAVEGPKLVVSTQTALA
Method: A 96-well MaxiSorp™ flat-bottom plate (Nunc) was coated with 4 ug/ml of Tie2-Fc (R&D systems) or BSA (Sigma). Then, the plate was washed five times with 0.05% (v/v) Tween-20-containing PBS (Phosphate Buffer Saline) and blocked with 1% (v/v) BSA (Bovine serum albumin; Sigma)-containing PBS at a room temperature for 2 hours. 0.25 ug/ml of Ang2 and 2 ug/ml of antibody 10D6 were added to each well of the plate, which was allowed to react at a room temperature for 2 hours and then washed five times with PBST. After that, an anti-mouse IgG antibody (Sigma) conjugated with HRP diluted in 1% (v/v) BSA-containing PBS at a ratio of 1:5,000 (v/v) was added in an amount of 100 ul to each well to react at a room temperature for 1 hour and then, the plate was washed five times with PBST. Lastly, 100 ul (microliter) of TMB substrate (Cell Signaling) was added to each well of the plate to induce color development for 3 min. and then, the reaction was ceased by the addition of 100 ul of Stop solution (Cell Signaling) and OD450 values were measured on a plate reader (Molecular Devices).

B1: SAIT-ANG2-AB-m10D6 (antibody, V domains shown)
VH: DVQLQESGPGLVKPSQSLSLTCTVTGYSITSDYAWNWIRQFPGNKLEWMGYINYSGNTDYNPSLKSRSSITRDTSKNQFFLQLNSVTTGDTATYYCARGNFEGAMDYWGQGTSVTVSS
VL: SIVMTQTPKFLLVSAGDRVTITCKASQSVSNDVAWYQQKPGQSPKLLIYYASNRYPGVPDRFTGSGYGTDFTFTISTVQAEDLAVYFCQQDYSSPWTFGGGTKLEIK
notes: also called antibody 10D6; anti-Ang2 antibody (10D6)
[1]
  Kd: 8 nM
[2]
  binding affinity (%) with mutant Ang2 against the binding affinity with the native Ang2: 109%
BSA
  binding result: no binding (tested: 2 µg/ml)
